Reference: US20230212275

B1: recombinant CFI (Complement Technology, Inc, A138) (protein)
chain: KVTYTSQEDLVEKKCLAKKYTHLSCDKVFCQPWQRCIEGTCVCKLPYQCPKNGTAVCATNRRSFPTYCQQKSLECLHPGTKFLNNGTCTAEGKFSVSLKHGNTDSEGIVEVKLVDQDKTMFICKSSWSMREANVACLDLGFQQGADTQRRFKLSDLSINSTECLHVHCRGLETSLAECTFTKRRTMGYQDFADVVCYTQKADSPMDDFFQCVNGKYISQMKACDGINDCGDQSDELCCKACQGKGFHCKSGVCIPSQYQCNGEVDCITGEDEVGCAGFASVTQEETEILTADMDAERRRIKSLLPKLSCGVKNRMHIRRKRIVGGKRAQLGDLPWQVAIKDASGITCGGIYIGGCWILTAAHCLRASKTHRYQIWTTVVDWIHPDLKRIVIEYVDRIIFHENYNAGTYQNDIALIEMKKDGNKKDCELPRSIPACVPWSPYLFQPNDTCIVSGWGREKDNERVFSLQWGEVKLISNCSKFYGNRFYEKEMECAGTYDGSIDACKGDSGGPLVCMDANNVTYVWGVVSWGENCGKPEFPGVYTKVANYFDWISYHVGRPFISQYNV

Legend:
[1] = target: C3b (Complement Technology, Inc, A113) (UniProt P01024)
[2] = target: C3b (Complement Technology, Inc, A113), P01024
C3b (Complement Technology, Inc, A113), P01024, sequence (P01024 whole entry, looked up): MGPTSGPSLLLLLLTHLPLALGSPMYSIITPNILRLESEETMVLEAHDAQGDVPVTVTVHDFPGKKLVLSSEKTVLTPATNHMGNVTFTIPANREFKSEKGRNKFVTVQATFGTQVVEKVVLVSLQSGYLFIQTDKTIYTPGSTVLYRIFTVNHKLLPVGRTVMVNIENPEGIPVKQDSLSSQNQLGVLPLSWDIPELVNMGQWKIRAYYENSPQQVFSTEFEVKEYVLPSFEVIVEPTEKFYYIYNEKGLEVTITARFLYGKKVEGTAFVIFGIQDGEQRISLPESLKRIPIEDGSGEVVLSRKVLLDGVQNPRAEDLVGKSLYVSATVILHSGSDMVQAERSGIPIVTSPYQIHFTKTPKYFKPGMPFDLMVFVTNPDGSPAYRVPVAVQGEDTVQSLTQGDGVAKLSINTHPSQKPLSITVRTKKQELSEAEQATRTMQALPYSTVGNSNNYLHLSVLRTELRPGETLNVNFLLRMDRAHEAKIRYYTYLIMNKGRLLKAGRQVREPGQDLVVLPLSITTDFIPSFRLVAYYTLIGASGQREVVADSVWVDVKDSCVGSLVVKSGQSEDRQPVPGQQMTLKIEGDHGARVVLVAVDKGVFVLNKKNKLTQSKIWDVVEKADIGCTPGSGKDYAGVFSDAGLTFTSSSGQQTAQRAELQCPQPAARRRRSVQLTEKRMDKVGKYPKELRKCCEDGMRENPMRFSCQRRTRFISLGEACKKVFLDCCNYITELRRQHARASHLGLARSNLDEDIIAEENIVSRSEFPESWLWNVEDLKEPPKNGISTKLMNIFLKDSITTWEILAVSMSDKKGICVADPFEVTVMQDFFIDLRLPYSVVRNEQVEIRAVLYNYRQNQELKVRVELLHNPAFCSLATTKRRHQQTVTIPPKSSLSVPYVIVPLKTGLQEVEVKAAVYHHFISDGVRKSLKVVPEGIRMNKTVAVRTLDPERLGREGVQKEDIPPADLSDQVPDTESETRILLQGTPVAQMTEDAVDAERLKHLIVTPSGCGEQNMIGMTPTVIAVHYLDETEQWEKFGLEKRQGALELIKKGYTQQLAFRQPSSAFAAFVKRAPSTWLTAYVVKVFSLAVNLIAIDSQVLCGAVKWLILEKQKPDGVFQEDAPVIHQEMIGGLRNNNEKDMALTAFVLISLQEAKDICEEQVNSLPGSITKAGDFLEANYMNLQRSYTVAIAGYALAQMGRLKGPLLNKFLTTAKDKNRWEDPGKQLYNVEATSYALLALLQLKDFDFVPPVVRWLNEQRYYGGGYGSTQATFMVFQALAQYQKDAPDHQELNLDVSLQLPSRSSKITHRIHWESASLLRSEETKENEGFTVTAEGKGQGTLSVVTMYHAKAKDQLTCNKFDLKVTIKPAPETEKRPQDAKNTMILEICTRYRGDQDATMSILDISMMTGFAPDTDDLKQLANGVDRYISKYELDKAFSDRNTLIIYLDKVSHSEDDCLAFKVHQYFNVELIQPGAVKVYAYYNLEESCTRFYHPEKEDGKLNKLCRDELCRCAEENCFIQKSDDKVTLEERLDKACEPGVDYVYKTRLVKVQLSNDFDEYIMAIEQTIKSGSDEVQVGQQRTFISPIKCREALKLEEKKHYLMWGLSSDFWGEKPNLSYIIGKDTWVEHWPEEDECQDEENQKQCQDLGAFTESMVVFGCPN

Molecule | C3b cleavage assay, iC3b ELISA [1] | C3b cleavage assay, iC3b ELISA [2]
CFI secreted by HEK293 cells transduced with AAV2 bicistronic vector RC289 (coAflibercept-F2A-coCFI) | CFI and FHL1 expressed from all bicistronic vectors is functional and can facilitate breakdown of C3b to iC3b | 
CFI secreted by HEK293 cells transduced with AAV2 bicistronic vector RC313 (coCFI-F2A-coAflibercept) | CFI and FHL1 expressed from all bicistronic vectors is functional and can facilitate breakdown of C3b to iC3b | 
B1 |  | C3b incubated with recombinant CFI and FHL1 served as a positive control; C3b breakdown requires the presence of CFI and FHL1
